Experimental findings from PMC11208740, “Structure of the human systemic RNAi defective transmembrane protein 1 (hSIDT1) reveals the conformational flexibility of its lipid binding domain” (Life Science Alliance, 2024) are described below.

This series deals with the molecule itself. Description: SEC; purified hSIDT1-GFP on Superose 6 Increase 10/300 GL at 0.5 ml/min, intrinsic tryptophan fluorescence; column in 0.15 mM LMNG, 25 mM Tris-HCl pH 7.5, 200 mM NaCl; molecular weight read from a standard plot.

B1: full-length human systemic RNAi defective transmembrane family member 1 (hSIDT1), C-terminal GFP-Strep-tag-II fusion (natural protein, UniProt Q9NXL6 20-827, looked up)
chain: ASPGHPAKSPRQPPAPRRDPFDAARGADFDHVYSGVVNLSTENIYSFNYTSQPDQVTAVRVYVNSSSENLNYPVLVVVRQQKEVLSWQVPLLFQGLYQRSYNYQEVSRTLCPSEATNETGPLQQLIFVDVASMAPLGAQYKLLVTKLKHFQLRTNVAFHFTASPSQPQYFLYKFPKDVDSVIIKVVSEMAYPCSVVSVQNIMCPVYDLDHNVEFNGVYQSMTKKAAITLQKKDFPGEQFFVVFVIKPEDYACGGSFFIQEKENQTWNLQRKKNLEVTIVPSIKESVYVKSSLFSVFIFLSFYLGCLLVGFVHYLRFQRKSIDGSFGSNDGSGNMVASHPIAASTPEGSNYGTIDESSSSPGRQMSSSDGGPPGQSDTDSSVEESDFDTMPDIESDKNIIRTKMFLYLSDLSRKDRRIVSKKYKIYFWNIITIAVFYALPVIQLVITYQTVVNVTGNQDICYYNFLCAHPLGVLSAFNNILSNLGHVLLGFLFLLIVLRRDILHRRALEAKDIFAVEYGIPKHFGLFYAMGIALMMEGVLSACYHVCPNYSNFQFDTSFMYMIAGLCMLKLYQTRHPDINASAYSAYASFAVVIMVTVLGVVFGKNDVWFWVIFSAIHVLASLALSTQIYYMGRFKIDLGIFRRAAMVFYTDCIQQCSRPLYMDRMVLLVVGNLVNWSFALFGLIYRPRDFASYMLGIFICNLLLYLAFYIIMKLRSSEKVLPVPLFCIVATAVMWAAALYFFFQNLSSWEGTPAESREKNRECILLDFFDDHDIWHFLSATALFFSFLVLLTLDDDLDVVRRDQIPVF
notes: human systemic RNAi defective transmembrane family member 1 (hSIDT1), full length, codon-optimized gene synthesized by GenScript, cloned into pEG BacMam; Made in cells that lack N-acetylglucosaminyltransferase I, so the protein lacks complex N-glycosylation (predicted sites N57, N67, N83, N136, N282); No cleavage of GFP-Strep-tag-II is described; Not modelled in the structure: the first 40 …
As usually defined, the stoichiometry N is a count of units in the complex or per binding partner. As for B1, the “stoichiometry N” value amounted to 2.
